For 2 molecules, Kd results are on record in article PMC11931385, “Structural and functional analysis of cancer-associated missense variants in the retinoblastoma protein pocket domain” (The Journal of Biological Chemistry, 2025).

No end group written: not given here. TMR = tetramethyl rhodamine dye

Holding throughout (assay): fluorescence polarisation; 25 °C; unlabeled Rb^P titrated against 1.5 nM TMR-E2F1^TD or 7.5 nM TMR-E7^LxCxE; 25 mM Tris pH 8.0, 200 mM NaCl, 1 mM DTT, 0.1% Tween-20; 2 min incubation; quadratic fit; apparent Kd for the variants, Kd for WT
Common to all, as to settings: both partners purified
(In fluorescence polarisation assays a small probe gives low polarisation when free and higher when bound to something large.)

In one assay the target is T1, Rb^P A490V (human, UniProt P06400 380-788, A490V).
T1 construct: also called variant 17
T1 sequence (looked up): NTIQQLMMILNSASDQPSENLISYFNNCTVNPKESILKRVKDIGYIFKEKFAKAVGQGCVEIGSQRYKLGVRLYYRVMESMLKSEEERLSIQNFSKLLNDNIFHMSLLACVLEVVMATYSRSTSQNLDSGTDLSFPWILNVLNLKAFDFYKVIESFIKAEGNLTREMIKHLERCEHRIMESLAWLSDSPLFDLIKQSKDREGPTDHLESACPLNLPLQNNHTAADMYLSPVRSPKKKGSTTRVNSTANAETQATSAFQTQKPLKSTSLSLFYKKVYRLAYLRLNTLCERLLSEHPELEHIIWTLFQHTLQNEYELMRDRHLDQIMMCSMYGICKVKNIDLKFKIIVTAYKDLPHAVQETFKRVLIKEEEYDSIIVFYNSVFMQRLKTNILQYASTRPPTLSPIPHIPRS

Another assay has as its target T2, Rb^P S648T (human, UniProt P06400 380-788, S648T).
T2 construct: also called variant 46
T2 sequence (looked up): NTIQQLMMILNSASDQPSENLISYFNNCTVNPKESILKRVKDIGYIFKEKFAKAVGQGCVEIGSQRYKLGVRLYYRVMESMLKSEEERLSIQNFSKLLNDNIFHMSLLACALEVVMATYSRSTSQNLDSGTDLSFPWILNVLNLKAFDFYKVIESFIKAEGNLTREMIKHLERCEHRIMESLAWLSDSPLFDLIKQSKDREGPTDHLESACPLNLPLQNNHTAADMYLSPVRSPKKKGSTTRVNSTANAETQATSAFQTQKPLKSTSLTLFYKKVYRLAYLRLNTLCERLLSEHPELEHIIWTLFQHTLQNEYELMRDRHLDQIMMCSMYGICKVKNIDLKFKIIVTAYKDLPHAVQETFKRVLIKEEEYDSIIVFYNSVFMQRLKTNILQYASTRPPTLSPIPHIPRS

Another assay has as its target T3, Rb^P R621P (human, UniProt P06400 380-788, R621P).
T3 construct: also called variant 43
T3 sequence (looked up): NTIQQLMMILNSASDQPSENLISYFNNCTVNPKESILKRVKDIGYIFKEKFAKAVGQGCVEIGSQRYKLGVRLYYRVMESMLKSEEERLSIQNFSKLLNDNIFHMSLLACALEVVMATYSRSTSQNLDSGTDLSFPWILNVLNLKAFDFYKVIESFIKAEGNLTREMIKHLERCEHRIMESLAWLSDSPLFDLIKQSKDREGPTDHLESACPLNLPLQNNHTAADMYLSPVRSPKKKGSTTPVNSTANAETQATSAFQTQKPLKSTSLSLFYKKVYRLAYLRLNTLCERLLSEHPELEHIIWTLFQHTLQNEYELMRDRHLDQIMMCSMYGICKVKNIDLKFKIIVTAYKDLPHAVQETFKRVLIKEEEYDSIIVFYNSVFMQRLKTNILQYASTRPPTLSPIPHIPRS

In another assay the target is T4, Rb^P S751C (human, UniProt P06400 380-788, S751C).
T4 construct: also called variant 71
T4 sequence (looked up): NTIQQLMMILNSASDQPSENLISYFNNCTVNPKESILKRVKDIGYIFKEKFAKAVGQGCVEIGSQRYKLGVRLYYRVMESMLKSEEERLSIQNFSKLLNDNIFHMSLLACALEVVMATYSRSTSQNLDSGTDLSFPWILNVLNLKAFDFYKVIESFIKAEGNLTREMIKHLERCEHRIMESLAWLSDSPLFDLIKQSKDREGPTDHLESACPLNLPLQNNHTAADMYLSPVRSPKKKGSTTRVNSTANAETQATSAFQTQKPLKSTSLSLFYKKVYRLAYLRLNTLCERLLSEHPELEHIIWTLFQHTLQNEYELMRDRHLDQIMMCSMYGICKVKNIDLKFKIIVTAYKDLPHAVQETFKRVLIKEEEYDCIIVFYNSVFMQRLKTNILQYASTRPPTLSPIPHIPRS

For another assay, the target named is T5, Rb^P R763T (human, UniProt P06400 380-788, R763T).
T5 construct: also called variant 75
T5 sequence (looked up): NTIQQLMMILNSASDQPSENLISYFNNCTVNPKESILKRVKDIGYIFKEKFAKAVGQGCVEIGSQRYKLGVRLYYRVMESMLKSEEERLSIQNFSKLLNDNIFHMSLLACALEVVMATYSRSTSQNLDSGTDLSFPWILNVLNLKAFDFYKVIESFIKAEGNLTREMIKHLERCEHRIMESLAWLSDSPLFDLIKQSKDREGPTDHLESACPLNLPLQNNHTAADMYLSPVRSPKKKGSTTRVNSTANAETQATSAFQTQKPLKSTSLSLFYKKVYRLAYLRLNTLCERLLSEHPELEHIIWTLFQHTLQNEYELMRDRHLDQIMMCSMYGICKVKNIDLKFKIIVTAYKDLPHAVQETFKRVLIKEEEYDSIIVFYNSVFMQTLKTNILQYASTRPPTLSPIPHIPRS

B1: TMR-E2F1^TD, peptide of the E2F1 transactivation domain (peptide)
peptide: {TMR}-GEGIRDLFDCDFGDLTPLD
notes: also called E2F^TD; source: synthetic peptide, bought: GenScript
Regarding B1, the Kd with Rb^P A490V worked out at 48 nM; with Rb^P S648T, 33 nM; with Rb^P R621P it was 40 nM; in the assay with Rb^P S751C, 66 nM; with Rb^P R763T it was 37 nM.

B2: TMR-E7^LxCxE, LxCxE peptide of the E7 oncoprotein from HPV (peptide)
peptide: DLYCYEQLN
modifications: also: TMR label, position not given here
notes: source: synthetic peptide, bought: GenScript
Turning to B2, the Kd turned out to be 11 nM with Rb^P A490V; 6 nM with Rb^P S648T; 12 nM in the assay with Rb^P R621P; 44 nM with Rb^P S751C; 21 nM with Rb^P R763T.
